Test results from the supplement of paper PMC7125110.
± gives the standard error. Variants at the floor of the assay were thinned out.

B1: glmS ribozyme (parent)
chain: AUAAAAGCGCCAGAACUACAGAAAUGUAGUUGACGAGGAGGAGGUUUAUCGAAUUUUCGGCGGAUGCCUCCAAA

Legend:
Conditions in all cases: with glucosamine-6-phosphate
glucosamine-6-phosphate [1] = variants of: B1; assay: self-cleavage kobs at 40 uM GlcN6P; higher = faster cleavage; RNA array
Outline: (§1)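 Sequenced MiSeq chips were the platform: E. coli RNA polymerase transcribed barcoded ribozyme variants on them in situ, and a hybridised Cy3 probe tracked these at 37 °C. After glucosamine-6-phosphate (40 μM to 10 mM) in HEPES/KCl/Mg(OAc)2 buffer was flowed in, tiles were imaged over ~14 h. Signals normalised to baseline and to non-cleaving reference variants were reduced to per-tile medians and fit to one- or two-exponential decays to obtain kobs. kcat and KM were derived through weighted Michaelis–Menten fits across concentrations.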

glucosamine-6-phosphate [2] = variants of: B1; assay: self-cleavage kobs at 640 uM GlcN6P; higher = faster cleavage; RNA array
Outline: as §1

glucosamine-6-phosphate [3] = variants of: B1; assay: self-cleavage kobs at 10000 uM GlcN6P; higher = faster cleavage; RNA array
Outline: as §1

glucosamine-6-phosphate [4] = variants of: B1; assay: self-cleavage kobs at 160 uM GlcN6P; higher = faster cleavage; RNA array
Outline: as §1

glucosamine-6-phosphate [5] = variants of: B1; assay: self-cleavage kobs at 2500 uM GlcN6P; higher = faster cleavage; RNA array
Outline: as §1

Row | Variant | self-cleavage kobs at 40 uM GlcN6P (glucosamine-6-phosphate [1]) [s⁻¹] | self-cleavage kobs at 640 uM GlcN6P (glucosamine-6-phosphate [2]) [s⁻¹] | self-cleavage kobs at 10000 uM GlcN6P (glucosamine-6-phosphate [3]) [s⁻¹] | self-cleavage kobs at 160 uM GlcN6P (glucosamine-6-phosphate [4]) [s⁻¹] | self-cleavage kobs at 2500 uM GlcN6P (glucosamine-6-phosphate [5]) [s⁻¹]
1 | A48C C61U C67G | < 1e-05 | < 1e-05 | < 1e-05 |  | 
2 | U47G C67A | 0.000123 ± 1.8e-05 | 0.000788 ± 0.00013 | 0.00198 ± 0.00048 | 0.000171 ± 3.2e-05 | 0.000691 ± 0.00014
3 | G43U U47G | < 1e-05 |  |  | < 1e-05 | 
4 | U46G G60A | < 1e-05 | < 1e-05 |  | < 1e-05 | 
5 | U46G G60C | < 1e-05 | < 1e-05 | < 1e-05 | < 1e-05 | < 1e-05
6 | C50G C61U | 3.66e-05 ± 1.1e-05 | 9.4e-05 ± 1.3e-05 |  | 6.61e-05 ± 1.4e-05 | 0.000423 ± 0.0002
7 | U47A C71U | 0.000701 ± 8.3e-05 | 0.00323 ± 0.00057 | 0.0342 ± 0.0081 | 0.0018 ± 0.0003 | 0.00535 ± 0.001
8 | U49C G63A | < 1e-05 |  | < 1e-05 | < 1e-05 | 
9 | U49C G63C | < 1e-05 | < 1e-05 |  |  | 
10 | C50G C58A C67U | 3.98e-05 ± 1.7e-05 |  | 5.82e-05 ± 1.9e-05 |  | 
11 | U46A G60U | < 1e-05 |  |  | < 1e-05 | < 1e-05
12 | A48U G66C | < 1e-05 |  |  | < 1e-05 | 
13 | A48C A64U | < 1e-05 | < 1e-05 |  | < 1e-05 | 
14 | A48C U49C C61G | < 1e-05 |  | < 1e-05 | < 1e-05 | < 1e-05
15 | U45C C58U | < 1e-05 | < 1e-05 |  | < 1e-05 | < 1e-05
16 | U45C C58G | < 1e-05 | < 1e-05 |  | < 1e-05 | 
17 | U47C U49A U54G C68A | < 1e-05 |  | < 1e-05 |  | 
18 | U49G G59C | < 1e-05 |  | < 1e-05 | < 1e-05 | 
19 | C50G G62A C68A | 6.73e-05 ± 1.6e-05 |  | 9.9e-05 ± 2.3e-05 |  | 
20 | C50G G62A C70U | 9.58e-05 ± 2.3e-05 | 0.000184 ± 4.7e-05 | 0.000104 ± 1.6e-05 |  | 0.000549 ± 0.00012
21 | U47C U57G | < 1e-05 |  |  |  | 

Row | Variant | self-cleavage kobs at 40 uM GlcN6P (glucosamine-6-phosphate [1]) [s⁻¹] | self-cleavage kobs at 640 uM GlcN6P (glucosamine-6-phosphate [2]) [s⁻¹] | self-cleavage kobs at 10000 uM GlcN6P (glucosamine-6-phosphate [3]) [s⁻¹] | self-cleavage kobs at 160 uM GlcN6P (glucosamine-6-phosphate [4]) [s⁻¹] | self-cleavage kobs at 2500 uM GlcN6P (glucosamine-6-phosphate [5]) [s⁻¹]
22 | U45A C68A | < 1e-05 | < 1e-05 |  | < 1e-05 | 3.91e-05 ± 1.9e-05
23 | G43U A48G C70G | < 1e-05 |  | < 1e-05 |  | 
24 | G44C U45A C71U | < 1e-05 |  |  |  | 
25 | U46C U47C C58G | < 1e-05 | < 1e-05 |  |  | 
26 | G44A G59U C71A | < 1e-05 | < 1e-05 | < 1e-05 | < 1e-05 | < 1e-05
27 | U45A G62U | < 1e-05 | < 1e-05 |  | < 1e-05 | < 1e-05
28 | U49C G63A A64C | < 1e-05 |  |  |  | 
29 | C50G A53U G66A C67A | 0.000122 ± 4.6e-05 |  | 0.000135 ± 5.1e-05 |  | 
30 | A48G U65A C68A | 0.000357 ± 0.00011 |  | 0.000113 ± 3.1e-05 |  | 
31 | G43C U46A | < 1e-05 |  | < 1e-05 |  | < 1e-05
32 | G43U G62U | < 1e-05 |  | < 1e-05 |  | < 1e-05
33 | U46C C61U | < 1e-05 | < 1e-05 |  | < 1e-05 | < 1e-05
34 | U47A U55A | 0.000618 ± 0.00013 | 0.00544 ± 0.0015 | 0.0432 ± 0.015 | 0.00147 ± 0.00021 | 0.00615 ± 0.0017
35 | G43C C70G | < 1e-05 | < 1e-05 | < 1e-05 |  | < 1e-05
36 | A48G A52G C58U | < 1e-05 |  |  |  | 
37 | G44C U55A | < 1e-05 | < 1e-05 |  | < 1e-05 | 
38 | C50A G63U | < 1e-05 | < 1e-05 | < 1e-05 | < 1e-05 | 
39 | A48G A53G C68G | 6.75e-05 ± 2.2e-05 |  | 5.82e-05 ± 1.7e-05 |  | 
40 | U46G C50G | 4.21e-05 ± 9.2e-06 | 4.09e-05 ± 1.3e-05 | 2.21e-05 ± 7.3e-06 | 7.37e-05 ± 1.5e-05 | 
41 | U49C U57A | < 1e-05 |  |  |  | 
42 | U49G G51A | < 1e-05 | < 1e-05 | < 1e-05 | < 1e-05 | < 1e-05

Row | Variant | self-cleavage kobs at 40 uM GlcN6P (glucosamine-6-phosphate [1]) [s⁻¹] | self-cleavage kobs at 640 uM GlcN6P (glucosamine-6-phosphate [2]) [s⁻¹] | self-cleavage kobs at 10000 uM GlcN6P (glucosamine-6-phosphate [3]) [s⁻¹] | self-cleavage kobs at 160 uM GlcN6P (glucosamine-6-phosphate [4]) [s⁻¹] | self-cleavage kobs at 2500 uM GlcN6P (glucosamine-6-phosphate [5]) [s⁻¹]
43 | U45G G60U C67U C70A | < 1e-05 | < 1e-05 | < 1e-05 |  | 
44 | U45A G66A | 0.000969 ± 0.00013 | 0.00848 ± 0.0021 | 0.0359 ± 0.011 | 0.00224 ± 0.00044 | 0.00884 ± 0.002
45 | G44A A52C | < 1e-05 | < 1e-05 | < 1e-05 | < 1e-05 | < 1e-05
46 | G44A A52U | < 1e-05 | < 1e-05 |  | < 1e-05 | 
47 | G43C U56C | < 1e-05 | < 1e-05 | < 1e-05 | < 1e-05 | 
48 | U49C C70A | < 1e-05 |  |  |  | 
49 | G44U C58G | < 1e-05 | < 1e-05 | < 1e-05 | < 1e-05 | < 1e-05
50 | U46C G60C | < 1e-05 | < 1e-05 | < 1e-05 | < 1e-05 | < 1e-05
51 | A48C G59U | < 1e-05 | < 1e-05 | < 1e-05 | < 1e-05 | < 1e-05
52 | A48C G59A | < 1e-05 | < 1e-05 | < 1e-05 | < 1e-05 | < 1e-05
53 | U46A U49G | < 1e-05 |  | 2.85e-05 ± 1.2e-05 |  | 
54 | G44C G60A U69G | < 1e-05 |  |  |  | 
55 | U47A C50U | < 1e-05 |  | 5.52e-05 ± 1.2e-05 |  | 
56 | G44U C68A | < 1e-05 | < 1e-05 | < 1e-05 | < 1e-05 | 
57 | G44A C50G U55A | < 1e-05 | < 1e-05 |  |  | < 1e-05
58 | G44A U56C | < 1e-05 |  | < 1e-05 | < 1e-05 | 
59 | G43U U54A | < 1e-05 |  | 6.37e-05 ± 2e-05 |  | 
60 | U45C U54G | 3.96e-05 ± 1.3e-05 | 0.00067 ± 0.00015 | 0.00305 ± 0.00064 | 0.000199 ± 3.9e-05 | 0.000454 ± 0.00018
61 | U49C U54G | < 1e-05 | < 1e-05 | < 1e-05 | < 1e-05 | 
62 | G43U G60C | < 1e-05 | < 1e-05 | < 1e-05 | < 1e-05 | 
63 | G43A U47G | < 1e-05 | < 1e-05 |  |  | 

Row | Variant | self-cleavage kobs at 40 uM GlcN6P (glucosamine-6-phosphate [1]) [s⁻¹] | self-cleavage kobs at 640 uM GlcN6P (glucosamine-6-phosphate [2]) [s⁻¹] | self-cleavage kobs at 10000 uM GlcN6P (glucosamine-6-phosphate [3]) [s⁻¹] | self-cleavage kobs at 160 uM GlcN6P (glucosamine-6-phosphate [4]) [s⁻¹] | self-cleavage kobs at 2500 uM GlcN6P (glucosamine-6-phosphate [5]) [s⁻¹]
64 | G44U U49C U57A | < 1e-05 | < 1e-05 |  |  | 
65 | U47C C58U C71U | < 1e-05 |  | 3.48e-05 ± 1.1e-05 |  | 
66 | A48G C50A | < 1e-05 | < 1e-05 |  | < 1e-05 | < 1e-05
67 | U46A A48C C70G C71U | < 1e-05 |  | < 1e-05 |  | 
68 | G43C C71A | < 1e-05 | < 1e-05 |  | < 1e-05 | < 1e-05
69 | G43C G62C | < 1e-05 | < 1e-05 |  | < 1e-05 | < 1e-05
70 | G43C G62U | < 1e-05 | < 1e-05 | < 1e-05 | < 1e-05 | < 1e-05
71 | G44A G59A | < 1e-05 | < 1e-05 | < 1e-05 | < 1e-05 | 
72 | A48C A52C | < 1e-05 | < 1e-05 | < 1e-05 | < 1e-05 | < 1e-05
73 | U49G G51A G63A | < 1e-05 |  | < 1e-05 |  | 
74 | G44A C70U | < 1e-05 |  |  | < 1e-05 | 
75 | G44A C70G | < 1e-05 | < 1e-05 | < 1e-05 | < 1e-05 | < 1e-05
76 | U45C G63A | < 1e-05 |  | < 1e-05 | < 1e-05 | < 1e-05
77 | G43C G51U | < 1e-05 |  | < 1e-05 |  | 
78 | U46G C61U | < 1e-05 | < 1e-05 |  | < 1e-05 | 
79 | G43A C61U C71A | < 1e-05 |  |  |  | 
80 | U45C G59U | < 1e-05 | < 1e-05 | < 1e-05 | < 1e-05 | 
81 | G44U G66U | < 1e-05 | < 1e-05 | < 1e-05 | < 1e-05 | < 1e-05
82 | G43C U65A | < 1e-05 | < 1e-05 |  |  | < 1e-05
83 | U45G U54C G63C A64U U65G | < 1e-05 |  |  |  | 
84 | G51A A64U | < 1e-05 |  |  | < 1e-05 | 
